For assay [1], the target named is T1, PSD95 protein (domains 1–2 in tandem; aminoacids 61–249) (UniProt P78352 61-249).
T1 construct: PSD95 (postsynaptic density 95), PDZ domains 1-2 in tandem, amino acids 61-249; also called postsynaptic density 95 (PSD95) PDZ 1–2; source: E. coli, purified
Put plainly: fluorescence polarisation; competition FP: FITC-labeled peptides fixed at 5 nM, non-saturating protein concentrations (PICK1 600 nM; PSD95 PDZ 1–2 8 µM; Shank3 8 µM), unlabeled peptides or compound varied; normalised to binding and tracer-only controls. To be noted: both partners purified. A general note: Fluorescence polarisation rises when a labelled molecule tumbles more slowly, as on binding a larger partner.

For assay [2], the target named is T2, His-MBP PICK1 construct (amino acids 1–356) (UniProt Q9NRD5 1-356).
T2 construct: it is used here for both assays; Details of the construct are in Supplemental Methods; also called truncated, dimeric form of PICK1 lacking the last 59 residues; source: baculovirus expression, purified (Nickel chromatography, size exclusion chromatography)
Put plainly: FRET or BRET; high throughput screen with a FRET-based readout: His-MBP PICK1 (1–356) and FITC-labelled 9 amino acid GluA2 C-terminal peptide; compounds at 50 μM. To be noted: both partners purified. For orientation: In BRET a luciferase serves as donor, and the signal depends on an acceptor being close.

Where no end group is shown, it is not given here.

T1 sequence (P78352 61-249): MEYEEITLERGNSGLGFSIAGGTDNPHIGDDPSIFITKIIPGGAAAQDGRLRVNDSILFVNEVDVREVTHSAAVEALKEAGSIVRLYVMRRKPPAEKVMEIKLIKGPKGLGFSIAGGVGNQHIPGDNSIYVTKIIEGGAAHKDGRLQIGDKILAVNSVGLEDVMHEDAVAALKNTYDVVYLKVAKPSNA
T2 sequence (Q9NRD5 1-356): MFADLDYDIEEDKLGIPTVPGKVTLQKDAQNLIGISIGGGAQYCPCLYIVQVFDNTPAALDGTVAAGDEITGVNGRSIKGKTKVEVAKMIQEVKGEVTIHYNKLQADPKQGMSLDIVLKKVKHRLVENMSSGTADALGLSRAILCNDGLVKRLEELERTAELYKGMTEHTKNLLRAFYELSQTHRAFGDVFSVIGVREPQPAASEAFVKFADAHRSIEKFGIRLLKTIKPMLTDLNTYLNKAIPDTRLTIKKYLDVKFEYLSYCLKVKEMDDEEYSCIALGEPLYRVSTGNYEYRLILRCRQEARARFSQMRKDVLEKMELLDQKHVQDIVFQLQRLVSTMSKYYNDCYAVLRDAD

B1: FITC-labeled GluN2B peptide (N-methyl-D-aspartate receptor subunit 2B, 1474–1482) (peptide)
peptide: KLSSIESDV
modifications: also: FITC label, position not given here
notes: N-methyl-D-aspartate receptor subunit 2B (GluN2B), C-terminal amino acids 1474-1482
Regarding B1, the binding result in assay [1] is on record as “binds”.

B2: FITC-labeled 9 amino acid C-terminal peptide of GluA2 (875–883) (peptide, UniProt P42262 875-883, looked up)
peptide: VYGIESVKI
modifications: also: FITC label, position not given here
notes: AMPA receptor subunit GluA2, C-terminal 9 amino acids, residues 875-883; also called GluA2 peptide; Fluorescein isothiocyanate-labeled peptide comprising the C-terminal amino acids of GluA2
As to B2, the binding result in assay [2] was “binds”.
